% inhibition of tau seeding in FRET biosensor cells after immunodepletion, antibody 3 nM and % inhibition of tau seeding in FRET biosensor cells after immunodepletion, antibody 300 nM data for three molecules are collected here from US20240150451A1.

The test addresses tau of P301S transgenic mice (aggregated tau in brainstem; tau seeds from spinal cord) (UniProt P10636). The experiment in a line: cell-based or functional assay.

Sequence of tau of P301S transgenic mice (aggregated tau in brainstem; tau seeds from spinal cord) (P10636 other isoform, or with tags, fused parts or gaps P301S P301S): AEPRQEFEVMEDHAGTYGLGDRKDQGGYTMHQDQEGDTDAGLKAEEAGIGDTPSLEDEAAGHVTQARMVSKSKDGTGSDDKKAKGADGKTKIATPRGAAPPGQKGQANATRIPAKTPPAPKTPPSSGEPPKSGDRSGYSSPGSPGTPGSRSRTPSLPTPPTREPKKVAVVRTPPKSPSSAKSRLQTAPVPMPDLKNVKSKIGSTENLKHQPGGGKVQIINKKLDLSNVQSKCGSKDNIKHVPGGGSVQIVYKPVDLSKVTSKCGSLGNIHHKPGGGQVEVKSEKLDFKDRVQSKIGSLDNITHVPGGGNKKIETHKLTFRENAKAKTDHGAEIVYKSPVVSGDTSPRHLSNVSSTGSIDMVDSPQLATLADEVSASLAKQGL

B1: PT66 monoclonal antibody (recombinant, mouse IgG2a/kappa) (antibody, V domains shown)
VH: QVQLQQPGAELVKPGASVKMSCKASGYTFTSYWITWVKQRPGQGLEWIGDIHPGRGSTKSNEKFKSKATLTVDTSSSTAYMQFSSLTSEDSAVYYCARRWGFDYWGQGTTLTVSS
VL: DIVITQDELSNPVTSGESVSISCRSSKSLLYKDGKTYLNWFLQRPGQSPQLLIYLMSTRASGVSDRFSGSGSGTDFTLEISRVKAEDVGVYYCQQLVDYPLTFGAGTKLELKR
Turning to B1, the % inhibition of tau seeding in FRET biosensor cells after immunodepletion, antibody 3 nM is 46.5% and the % inhibition of tau seeding in FRET biosensor cells after immunodepletion, antibody 300 nM was found to be 99.7%.

B2: PT69 monoclonal antibody (recombinant, mouse IgG2a/kappa) (antibody, V domains shown)
VH: QVQLQQPGAELVKPGASVKMSCKASGYTFTNYWITWVKQRPGQGLEWIGDIYPGSGRTKSNEKFKNKATLTADTSSSTAYMQLSSLTSEDSAVYYCTRRWGLDYWGQGTTLTVSS
VL: DIVITQDELSNPVTSGESVSISCRSNKSLLYKDGKTYLNWFLQRPGQSPQLLIYLMSTRASGVSDRFSGSGSGTDFTLEISRVKAEDVGVYYCQQLVDYPLTFGAGTKLELKR
On to B2, for which the % inhibition of tau seeding in FRET biosensor cells after immunodepletion, antibody 3 nM was found to be 45.8% and the % inhibition of tau seeding in FRET biosensor cells after immunodepletion, antibody 300 nM turned out to be 99.8%.

B3: hTau60 monoclonal antibody (recombinant, mouse IgG2a/kappa) (antibody, V domains shown)
VH: EVQLQQSGPELVKPGTSVKISCKVFGYTFTDYYMNWVKQSHGKSLEWIGDINPDNGETTYNQKFKGKATLTVDKSSSTAYMELRSLTSEDSAVYYCAKGATFVYWGQGTLVTVSA
VL: DVVMTQTPLSLPVSLGDQASISCISSQSLVHSTGTTFLHWFLQKPGQSPKLLIYKVSNRFSGVPDRFSGSGSGTDFTLKISRVEAEDLGFYFCSQSTYFPLTFGSGTKLEIKR
For B3, the % inhibition of tau seeding in FRET biosensor cells after immunodepletion, antibody 3 nM worked out at 22% and the % inhibition of tau seeding in FRET biosensor cells after immunodepletion, antibody 300 nM is 99.7%.
